Results from the supplement of paper PMC9170038.

System: MS2 coat protein
Assay: apparent KD of MS2 coat protein; designed switch direction (-1 OFF switch, 1 ON switch): -1; higher = weaker reporter binding
Method in brief: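 The reported apparent KD is a per-design median over clusters, from curve fits of normalised cluster fluorescence. Protein titrations used SNAP-549-labelled MS2 coat protein, doubled from 0.7 or 1.5 nM to 3 µM, in Tris-HCl pH 7.5 buffer with KCl, MgCl2, BSA, DTT, tRNA and Tween-20, with no input, 200 uM small-molecule ligand, or an oligonucleotide input. The RNA switches were transcribed on Illumina chips by stalled E. coli RNA polymerase.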

[1] = input ligand: microRNA oligo, concentration not stated
[2] = Eterna round: R95, input ligand: microRNA oligo, concentration not stated
[3] = Eterna round: R95, input ligand: FMN 200 uM
[4] = Eterna round: R95, input ligand: none

| Sequence | apparent KD of MS2 coat protein (input ligand: FMN 200 uM) | apparent KD of MS2 coat protein [1] | apparent KD of MS2 coat protein (input ligand: none) | apparent KD of MS2 coat protein [2] | apparent KD of MS2 coat protein [3] | apparent KD of MS2 coat protein [4] |
| --- | --- | --- | --- | --- | --- | --- |
| GCAGCAACUCUAACCAACUAAACAUGAGGAUCACCCAUGUCUCAGGAUAUGGUCUGGAUUACAGGCCAGAAGGGAGAAAGCUGC [Eli exng3 - 042] (Eterna round: R96, puzzle: Exclusion NG 3) | 12.4 nM | 12.3 nM | 12.6 nM | – | – | – |
| GCAGCAUAGAUAACAUACUGUUACAUGAGGAUCACCCAUGUAUAGGAUAUGGUCUGGAUUACAGGCCAGAAGGGUACAAGCUGC [Eli exng3 - 022] (Eterna round: R96, puzzle: Exclusion NG 3) | 12.6 nM | 9.84 nM | 14.4 nM | – | – | – |
| GCAGCAUAGUCGGAAACGACAGAACAUGAGGAUCACCCAUGUCAGGAUAUGGUCUGGAUUACAGGCCAGAAGGGACAAAGCUGC [Eli exng3 - 008] (Eterna round: R96, puzzle: Exclusion NG 3) | 19.6 nM | 14.1 nM | 19.8 nM | – | – | – |
| GCAGCGUAUGUAGGAUAUCGGUCAGUUUCUGAUCGAGAAGGACAUGAGGAUCACCCAUGUGCGGUCAUGCGUGAGCAUGGCUGC [JL ENG1 3.74] (Eterna round: R96, puzzle: Exclusion NG 1) | 268 nM | 31.3 nM | 41.2 nM | – | – | – |
| GCAGCGUAUGUAGGAUAUCGGUCAGUUUCUGAUCGAGAAGGACAUGAGGAUCACCCAUGUUAUUUCAUGCGUGAGCAUGGCUGC [JL ENG1 3.73] (Eterna round: R96, puzzle: Exclusion NG 1) | 271 nM | 31 nM | 37.1 nM | – | – | – |
| GCAGCUAACUGUGAUAACAGCACAUGAGGAUCACCCAUGUCUGAGGAUAUGGACUGGAUUACAGUCCAGAAGGCAGAAUGCUGC [Zipper Style 7] (Eterna round: R96, puzzle: Exclusion NG 3) | 10.8 nM | 8.87 nM | 13.4 nM | – | – | – |
| GCAGGUUAAGUCAGGAUAUACCUAUGGAUACAUAGGUAGAAGGGACAUGAGGAUCACCCAUGUGGCUCACCUGC [Fiskers BMX 4 - 60] (puzzle: Brourd's mod of Exclusion 4) | – | – | – | 21.6 nM | – | – |
| GCAGUUCGAGUUAGGAUAUGAUGUUAAUUCGGAUAUCAGAAGGAACUUGAGGAUCACCCAAGUAUAGAUGUUGU [JR_BMEx4_Sub061] (Eterna round: R97, puzzle: Brourd's mod of Exclusion 4) | 31.3 nM | – | 19.8 nM | – | – | – |
| GCAUCCAUAGUGAGGAUAUACCUCUGGAUACAUAGGUAGAAGGCACAUGAGGAUCACCCAUGUUCUUAGGAUGC [Fiskers BMX 4 - 34] (puzzle: Brourd's mod of Exclusion 4) | – | – | – | 23.9 nM | – | – |
| GCAUGCUAUGUCAGGAUAUACCUCUGGAUACAUAGGUAGAAGGGACAUGAGGAUCACCCAUGUCCUCAUCAUGC [Fiskers BMX 4 - 25] (puzzle: Brourd's mod of Exclusion 4) | – | – | – | 13.5 nM | – | – |
| GCAUUUGAGCAGGAUAUAGCCUGAACAUAAUGGUUAGAAGGGCUCACAUGAGGAUCACCCAUGUGGUGUCCAAA [Inratete] (puzzle: Exclusion 6) | – | – | – | 15.3 nM | 76.4 nM | 15.6 nM |
| GCCAAGUCAGGAUAUACAUGAGGAUCACCCAUGUAGGACGCUAUUUUGAUCUUGGUAGGUAGAAGGGACAUGGG [Mainaso] (puzzle: Exclusion 3) | – | – | – | 21.8 nM | – | – |
| GCCAGAGCAGGAUAUCUAAUAUCUCACAUGAGGAUCACCCAUGUCUAGCGAAAGCUAGAGGGAGAAGGGCUCUGGC [Mat - Exclusion 5 - Eli mod - D93] (puzzle: Exclusion 5) | – | – | – | 29.4 nM | 28.1 nM | 41.6 nM |
| GCCAGAGCAGGAUAUCUAAUAUGUCACAUGAGGAUCACCCAUGUCCAGCGAAAGCUGGAGGGAGAAGGGCUCUGGC [Fiskers Ex 5 - 21] (puzzle: Exclusion 5) | – | – | – | 51.8 nM | – | – |
| GCCAGAGCAGGAUAUUCAAUAAUCCACAUGAGGAUCACCCAUGUCCAGCGAAAGCUGGAGGGAGAAGGGCUCUGGC [Fiskers Ex 5 - 7] (puzzle: Exclusion 5) | – | – | – | 73.4 nM | – | – |
| GCCAGAGCAGGAUAUUCAAUAAUUCACAUGAGGAUCACCCAUGUCCAGCGAAAGCUGGAGGGAGAAGGGCUCUGGC [Fiskers Ex 5 - 2] (puzzle: Exclusion 5) | – | – | – | 33.4 nM | 17.5 nM | 44.3 nM |
| GCCAGAGCAGGAUAUUCAAUAUCACACAUGAGGAUCACCCAUGUCUAUCGAAAGAUAGAGGGAGAAGGGCUCUGGC [Mat - Exclusion 5 - Eli mod - D94] (puzzle: Exclusion 5) | – | – | – | 55.2 nM | – | – |

| Sequence | apparent KD of MS2 coat protein (input ligand: FMN 200 uM) | apparent KD of MS2 coat protein [1] | apparent KD of MS2 coat protein (input ligand: none) | apparent KD of MS2 coat protein [2] | apparent KD of MS2 coat protein [3] | apparent KD of MS2 coat protein [4] |
| --- | --- | --- | --- | --- | --- | --- |
| GCCCGGGCAGGAUAUACAAUGAGCUUGAGAAAUCGAGUUCGACAUGAGGAUCACCCAUGUAGAAGGGCCCGGGC [-37.4, -35.1 kcal, A 28% 1] (Eterna round: R97, puzzle: Exclusion 2) | 24.5 nM | – | 14.9 nM | – | – | – |
| GCCCGUGGGCAAGGAUAUCCUACGCUGUUCUGGUUCGUGUCUGUCACAUGAGGAUCACCCAUGUGGGAGAAGGUGCAUUAGGGU [Design 54] (Eterna round: R96, puzzle: Exclusion NG 2) | 16.7 nM | 12.3 nM | 16.8 nM | – | – | – |
| GCCGAAAAUGUGAGGAUAUACCUAUGGAUACAUAGGUAGAAGGCACAUGAGGAUCACCCAUGUCCAAUAACGGC [Eli bmx4 4.25] (Eterna round: R97, puzzle: Brourd's mod of Exclusion 4) | 528 nM | – | 223 nM | – | – | – |
| GCCGAAAGUGUGAGGAUAUACCUAUGGAAACAUAGGUAGAAGGCACAUGAGGAUCACCCAUGUGUUUCAACGGC [Mat - Exclusion 4 - Eli Mod - D20] (Eterna round: R97, puzzle: Brourd's mod of Exclusion 4) | 67 nM | – | 24.5 nM | – | – | – |
| GCCGAGUGAGGAUAUACAUGAGGAUCACCCAUGUAAACACGAAAGCAAGUGUCCCUCAGUAGAAGGCGCCAGGA [Xeanonis] (puzzle: Exclusion 3) | – | – | – | 13.9 nM | 18.2 nM | 14 nM |
| GCCGAUUAAGUCAGGAUAUACCUAUGGAUACAUAGGUAGAAGGGACAUGAGGAUCACCCAUGUUCCUCUACGGC [Fiskers BMX 4 - 16] (puzzle: Brourd's mod of Exclusion 4) | – | – | – | 13.6 nM | – | – |
| GCCGAUUAAGUGAGGAUAUACCUAUGGAUACAUAGGUAGAAGGCACAUGAGGAUCACCCAUGUUCCUUAACGGC [Fiskers BMX 4 - 7] (puzzle: Brourd's mod of Exclusion 4) | – | – | – | 10.5 nM | – | – |
| GCCGCUCACGAGGAUAUGGUGGAAAAGCCUUUGCUAGAAGGCGUGACAUGAGGAUCACCCAUGUAGGCACAUGA [Eternabot (L1) Solution 85] (Eterna round: R97, puzzle: Exclusion 6) | 24.9 nM | – | 30.4 nM | – | – | – |
| GCCUACAGAGGAUAUACAAAUGUAUGAAACCUGUUUAGACGACAUGAGGAUCACCCAUGUAGAAGGCUGUGGGC [Eternabot (L1) Solution 85] (Eterna round: R97, puzzle: Exclusion 2) | 285 nM | – | 37.5 nM | – | – | – |
| GCCUCACAUGAGGAUCACCCAUGUGAGGAUAUUGAGUUACCAGGCGAACAAGCGACUACGAGAAGGCACGUGGA [Eternabot (L2) Solution 85] (Eterna round: R97, puzzle: Exclusion 1) | 12 nM | – | 13.9 nM | – | – | – |
| GCCUGGGCAGGAUAUACAUGAGGAUCACCCAUGUCUGUUGACCGAACUCCGGAUAUAUGUAGAAGGGUCGCAGA [Eternabot (L1) Solution 100] (Eterna round: R97, puzzle: Exclusion 3) | 55.1 nM | – | 49.8 nM | – | – | – |
| GCGCAAACGCCAAAAGGCGAAACAACAUGAGGAUCACCCAUGUAGGAUAUCGAUUGCUUUGCAGUCGAGAAGGACGUAAUGCGC [JL ENG3 3.80 Mod 5] (Eterna round: R96, puzzle: Exclusion NG 3) | 12.7 nM | 14.9 nM | 22.1 nM | – | – | – |
| GCGCCAUCGUGAGAUGGCGUACCAACAUGAGGAUCACCCAUGUAGGAUAUCGAUUGCUUUGCAGUCGAGAAGGGCAUGAUAAGU [JL ENG3 3.76] (Eterna round: R96, puzzle: Exclusion NG 3) | – | 17.2 nM | – | – | – | – |
| GCGCCAUCGUGAGAUGGCGUAUAUACAUGAGGAUCACCCAUGUAGGAUAUCGAUUGCUUUGCAGUCGAGAAGGGCAUGUAAUUU [JL ENG3 3.93] (Eterna round: R96, puzzle: Exclusion NG 3) | – | 25.8 nM | – | – | – | – |
| GCGGAGAGAGAAGGAUAUUGAAAUGCUUCUACAUGAGGAUCACCCAUGUUCGGCAGACAUGGGACCAAGAAGGUCUAUGUCGCG [Eternabot solution 27] (Eterna round: R96, puzzle: Exclusion NG 2) | 70.2 nM | 40.4 nM | 55.4 nM | – | – | – |
| GCGGAGUCGAUCGUGAGAUCGGAGACAUGAGGAUCACCCAUGUAGGAUAUCGAUUGCUUUGCAGUCGAGAAGGGCGUGCUCCGC [JL denovo 18] (Eterna round: R96, puzzle: Exclusion NG 3) | 19.9 nM | 18.6 nM | 22.9 nM | – | – | – |
| GCGGGCUUGGGAGGAUAUACAUGAGGAUCACCCAUGUGUGUUCGGGCUGGCCGGUUUGGGCGCGUGUAGAAGGCUCGGGUUUGC [less GC, A 14%] (Eterna round: R96, puzzle: Exclusion NG 2) | 25.1 nM | 13.4 nM | 16.1 nM | – | – | – |
